{"source": "patent US20250027068A1", "data": [{"biological_target": "pooled human IgG (human)", "assay": "cell-based or functional assay", "units": {"Enzyme Activity Endpoint Assay: Fab′2": "ng/µL", "Enzyme Activity Endpoint Assay: Fc": "ng/µL", "Enzyme Activity Endpoint Assay: IgG": "ng/µL", "Enzyme Activity Endpoint Assay: scIgG": "ng/µL"}, "values": [{"binder": "VRT-23 (Fc fusion) SQTEDSESLQRLRDIEDFQAEKKMQNVVYTKWLDGVDVKDHDFRKIVDGNIAYYATPLLNGRGFYDINKDFNRDNDKCAAAVAANMFHYWLDINRDNVDRFLRQNPEKHGIIELPDEQLKLSDFLNTYESDHGYRDKSKLFDFISNNFNKPVWTDKLLDNYINGYAYNYKYGRTIEDSTKNTSKINFFKEVFNEKILTNIHSIRNQNEFSVLLSEALYTGKAIGLSYGPAGLRHSLGHIISVWGADLDADGNVVAIYVTDSDDKKLTIGDERVGLKRYKISTDDENRLRLTAYEETHNTGGQIRGLWTLDTGKYAWADYFDKTEQTGTDQAEQDKTHTCPPCPAPEAAGAPSVFLFPPKPKDTLMISRTPEVTCVVVDVSHEDPEVKFNWYVDGVEVHNAKTKPREEQQNSTYRVVSVLTVLHQDWLNGKEYKCKVSNKALKAPIEKTISKAKGQPREPQVYTLPPSRDELTKNQVSLTCLVKGFYPSDIAVEWESNGQPENNYKTTPPVLDSDGSFFLYSKLTVDKSRWQQGNVFSCSVMHEALHNHYTQKSLSLSPG", "Enzyme Activity Endpoint Assay: Fab′2": 0, "Enzyme Activity Endpoint Assay: Fc": 29, "Enzyme Activity Endpoint Assay: IgG": 1010, "Enzyme Activity Endpoint Assay: scIgG": 20}, {"binder": "VRT-26 (Fc fusion) VTSVWTKGVTPPTNFTYGEDVLHAPYVANQGWYDITKTFNGKDNLLCGAATAGNMLHWWFDQNKEQIENYLKKHPEKQKINFNGEQLFDVKEAIDTKDSQLDSKLFEYFKEKAFPYLSTKHLGVFPDHVIDMFINGYRLSLTNHGPTPVKRGSKDKRGGIFDAVFTRGVQSKLLTNRHDFKEKTLKEISDLIKQELTEGKALGISHTYANVRINHVINLWGADFDAEGNLEAIYVTDSDTNASIGMKKYFVGVNSNGKVAISAKEIEEDNIGAQVLGLFTLSTGQDIWNQTNDKTHTCPPCPAPEAAGAPSVFLFPPKPKDTLMISRTPEVTCVVVDVSHEDPEVKFNWYVDGVEVHNAKTKPREEQQNSTYRVVSVLTVLHQDWLNGKEYKCKVSNKALKAPIEKTISKAKGQPREPQVYTLPPSRDELTKNQVSLTCLVKGFYPSDIAVEWESNGQPENNYKTTPPVLDSDGSFFLYSKLTVDKSRWQQGNVFSCSVMHEALHNHYTQKSLSLSPG", "Enzyme Activity Endpoint Assay: Fab′2": 0, "Enzyme Activity Endpoint Assay: Fc": 213, "Enzyme Activity Endpoint Assay: IgG": 303, "Enzyme Activity Endpoint Assay: scIgG": 342}, {"binder": "VRT-27 (Fc fusion) VTSVWTKGVTPPADFTQGEDVFHAPYVANQGWYDITKTFNGKDNLLCGAATAGNMLHWWFDQNKEYIEAYLKKHPEKQKIIFGDQELLDVRKAINTKGSQKNSELFNYFRDKAFPNLSARRLGVFPDLVLDMFINGYYLNVTKTQTTDVNRTYQEKDKRGGIFDAVFTRGVQSKLLTSRHDFKEKGLKEISDLIKQELTEGKALGLSHTYANVRINHVINLWGADFDSDGNLKAIYVTDSDTNASIGMKKYFVGVNSAGKVAISAKEIKEDNIGAQVLGLFTLSTGQDIWNQTNDKTHTCPPCPAPEAAGAPSVFLFPPKPKDTLMISRTPEVTCVVVDVSHEDPEVKFNWYVDGVEVHNAKTKPREEQQNSTYRVVSVLTVLHQDWLNGKEYKCKVSNKALKAPIEKTISKAKGQPREPQVYTLPPSRDELTKNQVSLTCLVKGFYPSDIAVEWESNGQPENNYKTTPPVLDSDGSFFLYSKLTVDKSRWQQGNVFSCSVMHEALHNHYTQKSLSLSPG", "Enzyme Activity Endpoint Assay: Fab′2": 0, "Enzyme Activity Endpoint Assay: Fc": 92, "Enzyme Activity Endpoint Assay: IgG": 1150, "Enzyme Activity Endpoint Assay: scIgG": 33}, {"binder": "VRT-24 (Fc fusion) VTSVWTKGVTPPANFTQGEDVFHAPYKANQGWYDITKTFNGKDNLLCGAATAGNMLHWWFDQNKDQIEAYLKEHPEKQKINFNGEQLFDVKEAIDTKDDQTNSKLFEYFKEKAFPYLSTKHLGVFPDHVLDMFINGYRLSLTNHGPTPVKEGSKDKRGGIFDAVFTRGVQSKLLTSRHDFKEKTLKEISDLIKQELTEGKALALSHTYANVRINHVINLWGADFDSNGNLEAIYVTDSDTNASIGMKKYFVGVNSAGKVAISAKEIEDDNIGAQVLGLFTLSTGQDIWNQTNDKTHTCPPCPAPEAAGAPSVFLFPPKPKDTLMISRTPEVTCVVVDVSHEDPEVKFNWYVDGVEVHNAKTKPREEQQNSTYRVVSVLTVLHQDWLNGKEYKCKVSNKALKAPIEKTISKAKGQPREPQVYTLPPSRDELTKNQVSLTCLVKGFYPSDIAVEWESNGQPENNYKTTPPVLDSDGSFFLYSKLTVDKSRWQQGNVFSCSVMHEALHNHYTQKSLSLSPG", "Enzyme Activity Endpoint Assay: Fab′2": 0, "Enzyme Activity Endpoint Assay: Fc": 187, "Enzyme Activity Endpoint Assay: IgG": 392, "Enzyme Activity Endpoint Assay: scIgG": 249}, {"binder": "VRT-25 (Fc fusion) VTSVWTKGVTPPANFTQGEDVFHAPYVANQGWYDITKTFNGKDNLLCGAATAGNMLHWWFDQNKDQIERYLKEHPEKQKINFNGEQLFDVKEAIDTKDSQTDSKLFEYFKEKAFPYLSTKHLGVFPDHVLDMFINGYRLSLTNHGPTPVKEGSKDKRGGIFDAVFTRGVQSKLLTSRHDFKEKTLKEISDLIKQELTEGKALGLSHTYANVRINHVINLWGADFDSEGNLKAIYVTDSDTNASIGMKKYFVGVNSAGKVAISAKEIKEDNIGAQVLGLFTLSTGQDIWNQTNDKTHTCPPCPAPEAAGAPSVFLFPPKPKDTLMISRTPEVTCVVVDVSHEDPEVKFNWYVDGVEVHNAKTKPREEQQNSTYRVVSVLTVLHQDWLNGKEYKCKVSNKALKAPIEKTISKAKGQPREPQVYTLPPSRDELTKNQVSLTCLVKGFYPSDIAVEWESNGQPENNYKTTPPVLDSDGSFFLYSKLTVDKSRWQQGNVFSCSVMHEALHNHYTQKSLSLSPG", "Enzyme Activity Endpoint Assay: Fab′2": 12, "Enzyme Activity Endpoint Assay: Fc": 204, "Enzyme Activity Endpoint Assay: IgG": 183, "Enzyme Activity Endpoint Assay: scIgG": 284}, {"binder": "VRT-30 (Fc fusion) QITSVWTKGVTPPTPEQFRYNNEDVIHAPYLANQGWYDITKTFNGKDNLLCGAATAGNMLHWWFDQNKTEIEAYLSKHPEKQKIIFNNQELFDLKAAIDTKDSQTNSQLFNYFRDKAFPGLSARQLGVFPDLVLDMFINGYYLNVFKTQSTDVNRPYQDKDKRGGIFDAVFTRGVQTTLLTARHDLKNKTLNDISTLIKQELTEGKALALSHTYANVRISHVINLWGADFNAEGNLEAIYVTDSDANASIGMKKYFVGVNAHGKVAISAKKIEGENIGAQVLGLFTLSSGKDIWQKLSDKTHTCPPCPAPEAAGAPSVFLFPPKPKDTLMISRTPEVTCVVVDVSHEDPEVKFNWYVDGVEVHNAKTKPREEQQNSTYRVVSVLTVLHQDWLNGKEYKCKVSNKALKAPIEKTISKAKGQPREPQVYTLPPSRDELTKNQVSLTCLVKGFYPSDIAVEWESNGQPENNYKTTPPVLDSDGSFFLYSKLTVDKSRWQQGNVFSCSVMHEALHNHYTQKSLSLSPG", "Enzyme Activity Endpoint Assay: Fab′2": 0, "Enzyme Activity Endpoint Assay: Fc": 46, "Enzyme Activity Endpoint Assay: IgG": 986, "Enzyme Activity Endpoint Assay: scIgG": 22}, {"binder": "VRT-31 (Fc fusion) QITSVWTKGVTPLTPEQFRYNNEDVIHAPYLANQGWYDITKTFNGKDNLLCGAATAGNMLHWWFDQNKTEIEAYLKKHPEKQKIIFNNQELFDLKAAIDTKDSQTNSQLFNYFRDKAFPGLSARQLGVFPDLVLDMFINGYYLNVFKTQSTDVNRPYQDKDKRGGIFDAVFTRGVQTTLLTARHDLKNKGLNEISTLIKQELTEGKALALSHTYANVRISHVINLWGADFNAEGNLEAIYVTDSDSNASIGMKKYFVGVNAHGKVAISAKKIEGENIGAQVLGLFTLSSGKDIWQKLSDKTHTCPPCPAPEAAGAPSVFLFPPKPKDTLMISRTPEVTCVVVDVSHEDPEVKFNWYVDGVEVHNAKTKPREEQQNSTYRVVSVLTVLHQDWLNGKEYKCKVSNKALKAPIEKTISKAKGQPREPQVYTLPPSRDELTKNQVSLTCLVKGFYPSDIAVEWESNGQPENNYKTTPPVLDSDGSFFLYSKLTVDKSRWQQGNVFSCSVMHEALHNHYTQKSLSLSPG", "Enzyme Activity Endpoint Assay: Fab′2": 0, "Enzyme Activity Endpoint Assay: Fc": 27, "Enzyme Activity Endpoint Assay: IgG": 1020, "Enzyme Activity Endpoint Assay: scIgG": 21}, {"binder": "VRT-32 (Fc fusion) QITSVWTKGVTPPTPEQFRYNNEDVFHAPYTAHQGWYDITKTFDGKDNLLCGAATAGNMLHWWFDQNKTEIEAYLSKHPEKQKIIFNNQELFDLKAAIDTKDSQTNSALFNYFRDKAFPGLSARQLGVFPDLVLDMFINGYYLNVFKTQSTDVNRPYQDKDKRGGIFDAVFTRGVQTTLLTARHDLKNKTLNDISTIIKQELTEGRALALSHTYANVRISHVINLWGADFNAEGNLEAIYVTDSDSNASIGMKKYFVGVNASGKVAISAKKIEGENIGAQVLGLFTLSSGKDIWQKLSDKTHTCPPCPAPEAAGAPSVFLFPPKPKDTLMISRTPEVTCVVVDVSHEDPEVKFNWYVDGVEVHNAKTKPREEQQNSTYRVVSVLTVLHQDWLNGKEYKCKVSNKALKAPIEKTISKAKGQPREPQVYTLPPSRDELTKNQVSLTCLVKGFYPSDIAVEWESNGQPENNYKTTPPVLDSDGSFFLYSKLTVDKSRWQQGNVFSCSVMHEALHNHYTQKSLSLSPG", "Enzyme Activity Endpoint Assay: Fab′2": 0, "Enzyme Activity Endpoint Assay: Fc": 96, "Enzyme Activity Endpoint Assay: IgG": 803, "Enzyme Activity Endpoint Assay: scIgG": 79}, {"binder": "VRT-28 (Fc fusion) ITSVWTKGVTPPAKFTQGEDVFHAPYVANQGWYDITKTFNGKDNLLCGAATAGNMLHWWFDQNKEEIEAYLKKHPEKQKIIFGDQELLDVRKVINTKDSQTNSALFNYFKDKAFPNLSARRLGVFPDLVLDMFINGYYLNVYKTQTTDVNRTYQTKDRRGGIFDAVFTRGVQSKLLTERHDFKEKTLKEISDLIKQELTEGKALGLSHTYANVRINHVINLWGADFDSNGNLEAIYVTDSDTNASIGMKKYFVGVNSAGKVAISAKEIKEDNIGAQVLGLFTLSTGQDIWNQTNDKTHTCPPCPAPEAAGAPSVFLFPPKPKDTLMISRTPEVTCVVVDVSHEDPEVKFNWYVDGVEVHNAKTKPREEQQNSTYRVVSVLTVLHQDWLNGKEYKCKVSNKALKAPIEKTISKAKGQPREPQVYTLPPSRDELTKNQVSLTCLVKGFYPSDIAVEWESNGQPENNYKTTPPVLDSDGSFFLYSKLTVDKSRWQQGNVFSCSVMHEALHNHYTQKSLSLSPG", "Enzyme Activity Endpoint Assay: Fab′2": 0, "Enzyme Activity Endpoint Assay: Fc": 3, "Enzyme Activity Endpoint Assay: IgG": 987, "Enzyme Activity Endpoint Assay: scIgG": 22}]}]}
